The values below come from PMC2244645 (2007).

A value given as a limit tells only on which side of the number the result lay.

This test addresses alpha-synuclein (Homo sapiens, UniProt P37840). The test is described as follows: SPR. On the technique in general: SPR reads the build-up and loss of mass on a sensor chip optically.

APTYF [PTYF peptide (immobilized with added N-terminal alanine)] returned a Kd greater than 190 µM.
AQSTQ [QSTQ peptide (immobilized with added N-terminal alanine)] registered a Kd of 19 µM.

In general, Kd refers to the free concentration of one partner at which half of the binding sites on the other are occupied at equilibrium, for simple one-to-one binding. A low value points to higher affinity.
